Test results published in PMC5777263.

Columns and labels:
[1] = target: Cupriavidus metallidurans Betaproteobacteria proteasome homolog (Cm-BPH) (Cupriavidus metallidurans); assay: AUC + SEC-MALS; sedimentation velocity: 0.5 mg/ml protein in buffer A, 20 °C, 40,000 rpm; SEC-coupled multiangle light scattering; self-assembly
[2] = target: Cupriavidus metallidurans Betaproteobacteria proteasome homolog (Cm-BPH) (Cupriavidus metallidurans); assay: SEC-SAXS; Shodex Kw-403 column, 20 °C, 20 mM HEPES-NaOH pH 8.0, 150 mM NaCl, 2 mM TCEP, 1% sucrose; Cm-BPH 8.25 mg/ml, Td-BPH 15 mg/ml; profiles fitted with dodecameric and tetradecameric crystal models (FoXS)
[3] = target: Cupriavidus metallidurans Betaproteobacteria proteasome homolog (Cm-BPH) (Cupriavidus metallidurans); assay: crystal structure; Cm-BPH, space group P6, 2.1 Å, two monomers in the ASU; dodecamer called non-native, malonate molecules intercalated in the intersubunit clefts
[4] = target: Cupriavidus metallidurans Betaproteobacteria proteasome homolog (Cm-BPH) (Cupriavidus metallidurans); assay: negative-stain electron microscopy; 0.1 mg/ml protein, 1% uranyl acetate, particles classified and averaged (EMAN2)
[5] = target: Thiobacillus denitrificans Betaproteobacteria proteasome homolog (Td-BPH) (Thiobacillus denitrificans); assay: AUC + SEC-MALS; sedimentation velocity: 0.5 mg/ml protein in buffer A, 20 °C, 40,000 rpm; SEC-coupled multiangle light scattering; self-assembly
[6] = target: Thiobacillus denitrificans Betaproteobacteria proteasome homolog (Td-BPH) (Thiobacillus denitrificans); assay: SEC-SAXS; Shodex Kw-403 column, 20 °C, 20 mM HEPES-NaOH pH 8.0, 150 mM NaCl, 2 mM TCEP, 1% sucrose; Cm-BPH 8.25 mg/ml, Td-BPH 15 mg/ml; profiles fitted with dodecameric and tetradecameric crystal models (FoXS)
[7] = target: Thiobacillus denitrificans Betaproteobacteria proteasome homolog (Td-BPH) (Thiobacillus denitrificans); assay: negative-stain electron microscopy; 0.1 mg/ml protein, 1% uranyl acetate, particles classified and averaged (EMAN2)
[8] = target: Thiobacillus denitrificans Betaproteobacteria proteasome homolog (Td-BPH) (Thiobacillus denitrificans); assay: crystal structure; Td-BPH apo: hexagonal form P6(1)22 (100 mM sodium acetate pH 4.8, 1.2 M sodium nitrate) and orthorhombic form P2(1)2(1)2(1) (100 mM HEPES-NaOH pH 7.0, 600 mM NaF), 2.3 Å

Substance: Cupriavidus metallidurans Betaproteobacteria proteasome homolog (Cm-BPH) (enzyme)
- stoichiometry N [1]: 13.8 subunits
- stoichiometry N [2]: 14 subunits
- stoichiometry N [3]: 12 subunits
- stoichiometry N (subunits per ring) [4]: 7

Substance: Thiobacillus denitrificans Betaproteobacteria proteasome homolog (Td-BPH) (enzyme)
- stoichiometry N [5]: 14 subunits
- stoichiometry N [6]: 14 subunits
- stoichiometry N (subunits per ring) [7]: 7
- stoichiometry N [8]: 14 subunits
